According to patent US20150258192A1, “COMPOSITIONS AND METHODS FOR PREVENTING OR TREATING CHRONIC LUNG ALLOGRAFT DYSFUNCTION (CLAD) AND IDIOPATHIC PULMONARY FIBROSIS (IPF)” (priority 2014, published 2015):
No end group written: not given here.

Key:
Assay in all cases: Kinase Profiling Assay
Assay type in all cases: biochemical
Conditions in all cases: peptide 100 μM
IKKβ(h) = target: T1, IKKβ(h) (Homo sapiens, UniProt O14920)
T1 construct: purchased Millipore
T1 sequence (O14920 1-756): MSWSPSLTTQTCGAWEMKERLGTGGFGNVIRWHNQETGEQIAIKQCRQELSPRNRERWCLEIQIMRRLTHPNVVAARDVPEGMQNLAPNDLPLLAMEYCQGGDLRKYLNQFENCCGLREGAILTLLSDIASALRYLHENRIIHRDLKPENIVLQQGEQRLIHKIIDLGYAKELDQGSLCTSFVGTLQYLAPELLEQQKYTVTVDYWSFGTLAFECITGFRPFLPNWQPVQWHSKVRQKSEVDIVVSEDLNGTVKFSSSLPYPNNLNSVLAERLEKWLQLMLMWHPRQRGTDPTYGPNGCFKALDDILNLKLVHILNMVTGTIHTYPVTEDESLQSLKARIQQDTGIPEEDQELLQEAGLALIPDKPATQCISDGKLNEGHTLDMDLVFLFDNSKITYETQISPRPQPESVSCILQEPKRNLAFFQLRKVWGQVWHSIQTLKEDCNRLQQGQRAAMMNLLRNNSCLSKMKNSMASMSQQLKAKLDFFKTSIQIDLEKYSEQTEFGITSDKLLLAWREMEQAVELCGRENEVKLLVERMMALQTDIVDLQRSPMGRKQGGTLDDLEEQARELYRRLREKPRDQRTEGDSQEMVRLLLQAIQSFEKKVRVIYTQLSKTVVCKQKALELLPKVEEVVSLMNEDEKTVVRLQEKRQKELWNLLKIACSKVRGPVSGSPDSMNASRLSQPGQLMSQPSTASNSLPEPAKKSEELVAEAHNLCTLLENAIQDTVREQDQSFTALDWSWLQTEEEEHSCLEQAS
Protocol: (§1) Every kinase activity measurement was conducted in duplicate.
(§2) Specifically, in these assays, a positively charged substrate is phosphorylated with a radiolabeled phosphate group from an ATP if the kinase is not inhibited by an inhibitor peptide. The positively charged substrate then is attracted to a negatively charged filter membrane, quantified with a scintillation counter, and compared to a 100% activity control.
(§3) In addition to determining the IC50 of the compound, the specificity of MK2 inhibitory peptides was assessed by examining activities of all 266 human kinases available for testing in the Millipore kinase profiling service (Table 1).

TLK2(h) = TLK2(h) (Homo sapiens, UniProt Q86UE8)
Protocol: as §1, §2, §3

EGFR(L861Q)(h) = EGFR(L861Q)(h) (Homo sapiens, UniProt P00533, L861Q)
Protocol: as §1, §2, §3

SRPK1(h) = target: T2, SRPK1(h) (Homo sapiens, UniProt Q96SB4)
T2 construct: purchased Millipore
Protocol: as §1, §2, §3

WNK3(h) = WNK3(h) (Homo sapiens, UniProt Q9BYP7)
Protocol: as §1, §2, §3

DRAK1(h) = target: T3, DRAK1(h) (Homo sapiens, UniProt Q9UEE5)
T3 sequence (Q9UEE5 1-414): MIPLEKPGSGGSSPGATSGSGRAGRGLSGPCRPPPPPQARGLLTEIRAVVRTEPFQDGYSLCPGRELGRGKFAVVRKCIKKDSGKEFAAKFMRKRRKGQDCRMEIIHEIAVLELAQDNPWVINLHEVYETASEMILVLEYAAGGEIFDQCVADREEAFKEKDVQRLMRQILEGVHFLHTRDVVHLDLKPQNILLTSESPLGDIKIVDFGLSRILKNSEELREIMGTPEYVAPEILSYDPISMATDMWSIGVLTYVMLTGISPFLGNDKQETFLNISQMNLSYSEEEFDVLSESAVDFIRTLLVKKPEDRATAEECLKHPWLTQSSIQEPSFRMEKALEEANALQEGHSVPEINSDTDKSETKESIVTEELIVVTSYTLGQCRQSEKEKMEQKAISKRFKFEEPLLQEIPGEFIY
Protocol: as §1, §2, §3

TAO1(h) = target: T4, TAO1(h) (Homo sapiens, UniProt Q7L7X3)
T4 construct: purchased Millipore
T4 sequence (Q7L7X3 1-1001): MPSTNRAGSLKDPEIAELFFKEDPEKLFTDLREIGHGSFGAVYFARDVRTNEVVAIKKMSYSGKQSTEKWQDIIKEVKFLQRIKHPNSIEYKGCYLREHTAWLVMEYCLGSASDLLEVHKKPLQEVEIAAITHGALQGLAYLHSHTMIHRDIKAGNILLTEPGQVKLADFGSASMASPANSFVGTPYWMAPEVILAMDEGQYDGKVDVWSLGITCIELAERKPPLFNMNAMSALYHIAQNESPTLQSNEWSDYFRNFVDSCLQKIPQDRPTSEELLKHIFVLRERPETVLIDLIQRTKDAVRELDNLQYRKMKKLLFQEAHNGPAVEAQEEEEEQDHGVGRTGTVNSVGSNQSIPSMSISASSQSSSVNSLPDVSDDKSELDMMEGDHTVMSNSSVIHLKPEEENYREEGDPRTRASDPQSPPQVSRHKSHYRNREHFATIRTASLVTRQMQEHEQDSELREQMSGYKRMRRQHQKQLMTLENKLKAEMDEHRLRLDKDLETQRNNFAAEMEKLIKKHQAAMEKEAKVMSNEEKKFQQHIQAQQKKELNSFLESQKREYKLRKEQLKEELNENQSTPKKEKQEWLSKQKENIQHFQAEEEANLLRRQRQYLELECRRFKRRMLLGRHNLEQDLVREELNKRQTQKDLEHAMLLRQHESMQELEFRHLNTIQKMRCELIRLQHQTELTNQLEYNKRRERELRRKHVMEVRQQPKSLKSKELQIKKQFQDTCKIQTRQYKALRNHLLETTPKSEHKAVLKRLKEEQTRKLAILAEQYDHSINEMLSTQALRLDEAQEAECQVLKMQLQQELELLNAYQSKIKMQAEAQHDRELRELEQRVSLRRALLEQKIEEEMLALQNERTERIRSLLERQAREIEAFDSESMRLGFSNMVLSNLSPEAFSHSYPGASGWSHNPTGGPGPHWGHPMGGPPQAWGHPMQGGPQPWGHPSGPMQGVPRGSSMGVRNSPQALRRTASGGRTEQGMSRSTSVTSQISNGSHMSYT
Protocol: as §1, §2, §3

cSRC(h) = cSRC(h) (Homo sapiens, UniProt P12931)
Protocol: as §1, §2, §3

Arg(h) = Arg(h) (Homo sapiens, UniProt P42684)
Protocol: as §1, §2, §3

PRK2(h) = PRK2(h) (Homo sapiens, UniProt Q16513)
Protocol: as §1, §2, §3

DAPK1(h) = DAPK1(h) (Homo sapiens, UniProt P53355)
Protocol: as §1, §2, §3

WNK3(h), sequence (Q9BYP7 whole entry): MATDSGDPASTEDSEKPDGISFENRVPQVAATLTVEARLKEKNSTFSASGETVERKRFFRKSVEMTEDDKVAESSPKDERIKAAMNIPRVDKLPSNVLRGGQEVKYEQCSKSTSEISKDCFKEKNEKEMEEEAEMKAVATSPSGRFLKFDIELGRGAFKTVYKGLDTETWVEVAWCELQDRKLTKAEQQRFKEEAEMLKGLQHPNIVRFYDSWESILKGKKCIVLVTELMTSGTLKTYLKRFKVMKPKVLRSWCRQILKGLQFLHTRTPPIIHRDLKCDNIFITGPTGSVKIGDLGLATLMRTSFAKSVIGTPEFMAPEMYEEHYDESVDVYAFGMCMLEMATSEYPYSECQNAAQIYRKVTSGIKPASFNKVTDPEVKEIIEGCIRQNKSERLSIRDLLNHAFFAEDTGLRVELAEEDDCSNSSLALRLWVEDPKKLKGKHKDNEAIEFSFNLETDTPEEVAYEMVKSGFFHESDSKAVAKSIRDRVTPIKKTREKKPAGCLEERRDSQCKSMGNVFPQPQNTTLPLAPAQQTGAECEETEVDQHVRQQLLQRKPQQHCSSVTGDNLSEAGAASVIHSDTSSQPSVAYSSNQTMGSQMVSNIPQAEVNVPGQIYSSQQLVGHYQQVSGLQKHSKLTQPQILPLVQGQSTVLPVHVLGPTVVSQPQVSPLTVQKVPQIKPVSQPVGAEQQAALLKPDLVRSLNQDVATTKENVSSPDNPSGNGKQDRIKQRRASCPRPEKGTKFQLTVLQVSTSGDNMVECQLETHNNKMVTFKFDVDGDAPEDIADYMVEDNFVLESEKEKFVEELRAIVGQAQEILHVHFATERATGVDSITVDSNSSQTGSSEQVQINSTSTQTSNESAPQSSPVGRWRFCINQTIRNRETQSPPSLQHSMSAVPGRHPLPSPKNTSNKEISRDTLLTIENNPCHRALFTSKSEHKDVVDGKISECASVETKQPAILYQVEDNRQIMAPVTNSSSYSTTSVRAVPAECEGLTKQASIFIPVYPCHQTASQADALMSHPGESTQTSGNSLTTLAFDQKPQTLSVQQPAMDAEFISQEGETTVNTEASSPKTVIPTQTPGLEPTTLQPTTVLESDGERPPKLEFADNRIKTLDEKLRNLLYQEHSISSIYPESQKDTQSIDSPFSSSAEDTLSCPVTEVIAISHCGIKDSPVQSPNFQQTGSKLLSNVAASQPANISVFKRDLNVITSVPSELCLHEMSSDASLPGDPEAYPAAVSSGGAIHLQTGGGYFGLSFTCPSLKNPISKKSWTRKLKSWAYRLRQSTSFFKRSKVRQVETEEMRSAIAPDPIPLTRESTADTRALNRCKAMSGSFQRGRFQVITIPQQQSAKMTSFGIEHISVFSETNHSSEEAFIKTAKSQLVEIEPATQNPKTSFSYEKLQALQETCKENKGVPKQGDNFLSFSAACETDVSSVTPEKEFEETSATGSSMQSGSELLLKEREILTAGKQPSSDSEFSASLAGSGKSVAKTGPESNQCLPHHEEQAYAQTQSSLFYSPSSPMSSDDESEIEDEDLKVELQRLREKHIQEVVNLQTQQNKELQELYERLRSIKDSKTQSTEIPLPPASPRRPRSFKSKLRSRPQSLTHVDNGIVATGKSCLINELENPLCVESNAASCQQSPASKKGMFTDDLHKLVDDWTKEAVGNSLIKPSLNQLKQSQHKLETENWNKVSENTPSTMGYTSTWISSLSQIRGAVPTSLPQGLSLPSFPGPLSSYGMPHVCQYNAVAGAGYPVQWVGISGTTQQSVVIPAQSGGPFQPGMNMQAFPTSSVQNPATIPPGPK
PRK2(h), sequence (Q16513 whole entry): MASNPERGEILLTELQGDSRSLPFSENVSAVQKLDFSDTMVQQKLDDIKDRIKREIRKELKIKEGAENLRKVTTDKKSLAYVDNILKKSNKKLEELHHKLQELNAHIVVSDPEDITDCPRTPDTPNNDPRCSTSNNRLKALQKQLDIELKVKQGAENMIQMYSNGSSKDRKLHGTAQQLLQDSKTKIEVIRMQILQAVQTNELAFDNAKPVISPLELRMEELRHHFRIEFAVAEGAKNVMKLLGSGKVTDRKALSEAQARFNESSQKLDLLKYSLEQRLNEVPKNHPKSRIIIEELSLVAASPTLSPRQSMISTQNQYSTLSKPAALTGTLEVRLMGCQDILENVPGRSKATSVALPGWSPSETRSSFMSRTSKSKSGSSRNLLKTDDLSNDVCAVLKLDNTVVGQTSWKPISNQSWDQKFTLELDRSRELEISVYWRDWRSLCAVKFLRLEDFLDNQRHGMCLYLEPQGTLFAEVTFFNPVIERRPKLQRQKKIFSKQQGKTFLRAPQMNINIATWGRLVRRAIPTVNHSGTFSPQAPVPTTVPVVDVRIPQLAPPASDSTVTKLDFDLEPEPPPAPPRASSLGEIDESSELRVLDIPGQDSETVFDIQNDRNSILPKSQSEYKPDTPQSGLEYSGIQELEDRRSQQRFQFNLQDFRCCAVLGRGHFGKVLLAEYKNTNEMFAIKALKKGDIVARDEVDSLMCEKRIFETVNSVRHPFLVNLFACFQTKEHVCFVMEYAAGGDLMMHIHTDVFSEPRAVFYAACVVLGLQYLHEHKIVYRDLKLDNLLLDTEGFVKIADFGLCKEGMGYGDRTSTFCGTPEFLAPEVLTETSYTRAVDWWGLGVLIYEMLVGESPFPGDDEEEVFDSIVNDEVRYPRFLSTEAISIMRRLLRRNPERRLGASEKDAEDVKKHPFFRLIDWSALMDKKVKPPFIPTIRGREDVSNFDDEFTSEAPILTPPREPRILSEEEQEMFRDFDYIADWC
TLK2(h), sequence (Q86UE8 whole entry): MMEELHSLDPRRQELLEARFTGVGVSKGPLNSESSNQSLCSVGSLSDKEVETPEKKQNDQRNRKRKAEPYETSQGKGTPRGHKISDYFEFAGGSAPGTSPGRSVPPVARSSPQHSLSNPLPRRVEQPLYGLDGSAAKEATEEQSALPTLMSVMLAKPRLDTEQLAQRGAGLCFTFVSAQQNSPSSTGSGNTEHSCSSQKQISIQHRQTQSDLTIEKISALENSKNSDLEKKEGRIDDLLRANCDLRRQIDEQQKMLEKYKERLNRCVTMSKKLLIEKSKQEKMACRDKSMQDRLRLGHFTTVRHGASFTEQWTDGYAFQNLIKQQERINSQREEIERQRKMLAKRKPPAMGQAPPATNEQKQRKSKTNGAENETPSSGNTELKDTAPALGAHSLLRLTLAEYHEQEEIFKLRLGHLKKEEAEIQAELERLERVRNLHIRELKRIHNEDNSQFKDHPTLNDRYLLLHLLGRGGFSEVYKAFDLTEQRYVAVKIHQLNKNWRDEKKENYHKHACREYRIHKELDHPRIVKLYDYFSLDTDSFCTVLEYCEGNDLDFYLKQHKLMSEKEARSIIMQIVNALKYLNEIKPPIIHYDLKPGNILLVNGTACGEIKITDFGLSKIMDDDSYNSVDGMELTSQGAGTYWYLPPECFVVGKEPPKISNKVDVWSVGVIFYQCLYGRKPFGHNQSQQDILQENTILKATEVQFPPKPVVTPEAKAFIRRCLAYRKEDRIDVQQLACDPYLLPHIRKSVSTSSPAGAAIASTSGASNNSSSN
DAPK1(h), sequence (P53355 whole entry): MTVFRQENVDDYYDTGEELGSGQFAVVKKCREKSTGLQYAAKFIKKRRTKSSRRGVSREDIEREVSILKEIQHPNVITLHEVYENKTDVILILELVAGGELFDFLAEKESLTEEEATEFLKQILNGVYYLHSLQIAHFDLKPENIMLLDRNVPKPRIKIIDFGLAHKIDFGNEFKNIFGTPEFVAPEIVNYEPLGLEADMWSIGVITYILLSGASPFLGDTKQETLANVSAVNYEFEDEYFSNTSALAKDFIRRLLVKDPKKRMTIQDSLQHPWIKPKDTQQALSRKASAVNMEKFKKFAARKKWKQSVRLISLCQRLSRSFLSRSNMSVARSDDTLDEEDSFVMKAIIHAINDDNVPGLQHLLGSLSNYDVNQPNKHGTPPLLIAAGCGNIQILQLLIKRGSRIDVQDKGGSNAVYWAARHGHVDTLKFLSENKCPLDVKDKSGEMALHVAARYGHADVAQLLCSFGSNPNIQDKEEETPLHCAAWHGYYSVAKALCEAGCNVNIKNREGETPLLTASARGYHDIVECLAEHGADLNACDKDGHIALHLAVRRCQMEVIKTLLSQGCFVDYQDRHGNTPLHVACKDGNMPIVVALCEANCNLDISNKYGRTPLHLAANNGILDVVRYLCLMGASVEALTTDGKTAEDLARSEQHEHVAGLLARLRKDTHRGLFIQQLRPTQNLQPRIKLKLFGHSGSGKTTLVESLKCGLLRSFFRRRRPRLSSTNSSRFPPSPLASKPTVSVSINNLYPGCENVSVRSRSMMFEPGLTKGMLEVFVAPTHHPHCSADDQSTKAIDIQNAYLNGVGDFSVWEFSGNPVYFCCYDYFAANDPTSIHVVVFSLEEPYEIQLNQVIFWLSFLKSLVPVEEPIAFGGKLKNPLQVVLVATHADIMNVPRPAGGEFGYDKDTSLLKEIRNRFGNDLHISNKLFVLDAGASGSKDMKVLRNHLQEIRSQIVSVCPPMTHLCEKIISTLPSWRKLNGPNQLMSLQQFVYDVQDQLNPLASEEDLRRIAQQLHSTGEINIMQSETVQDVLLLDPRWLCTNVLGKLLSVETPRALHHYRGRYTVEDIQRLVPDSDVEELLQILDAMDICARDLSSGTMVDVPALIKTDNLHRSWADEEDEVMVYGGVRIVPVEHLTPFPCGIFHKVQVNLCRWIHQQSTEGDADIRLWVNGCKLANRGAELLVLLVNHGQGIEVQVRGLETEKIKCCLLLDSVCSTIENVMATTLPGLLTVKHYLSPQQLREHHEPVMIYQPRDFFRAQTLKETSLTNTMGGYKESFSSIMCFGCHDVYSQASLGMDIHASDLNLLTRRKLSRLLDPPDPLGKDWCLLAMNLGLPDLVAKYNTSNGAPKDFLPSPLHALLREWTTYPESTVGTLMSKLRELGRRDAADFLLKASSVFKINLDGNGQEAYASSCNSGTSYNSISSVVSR

KAFAKLAARLYRKALARQLGVAA [MMI-0400]
% activity (IKKβ(h)): 84% | % activity (TLK2(h)): 151% | % activity (EGFR(L861Q)(h)): 22% | % activity (SRPK1(h)): 96% | % activity (WNK3(h)): 74% | % activity (DRAK1(h)): 14% | % activity (TAO1(h)): 73% | % activity (cSRC(h)): 14% | % activity (Arg(h)): 84% | % activity (PRK2(h)): 27% | % activity (DAPK1(h)): 36%

FAKLAARLYRKALARQLGVAA [MMI-0300]
% activity (IKKβ(h)): 84% | % activity (EGFR(L861Q)(h)): 25% | % activity (SRPK1(h)): 90% | % activity (WNK3(h)): 77% | % activity (DRAK1(h)): 14% | % activity (TAO1(h)): 82% | % activity (cSRC(h)): 26% | % activity (Arg(h)): 72% | % activity (PRK2(h)): 33% | % activity (DAPK1(h)): 46%

YARAAARQARAKALARQLGVAA [MMI-0100]
% activity (EGFR(L861Q)(h)): 53% | % activity (SRPK1(h)): 69% | % activity (WNK3(h)): 100% | % activity (DRAK1(h)): 47% | % activity (TAO1(h)): 99% | % activity (PRK2(h)): 72% | % activity (DAPK1(h)): 97%

HRRIKAWLKKIKALARQLGVAA (Mammal) [MMI-0500]
% activity (IKKβ(h)): 71% | % activity (TLK2(h)): 133% | % activity (EGFR(L861Q)(h)): 15% | % activity (SRPK1(h)): 80% | % activity (WNK3(h)): 9% | % activity (DRAK1(h)): 8% | % activity (TAO1(h)): 24% | % activity (cSRC(h)): 30% | % activity (Arg(h)): 22% | % activity (PRK2(h)): 7% | % activity (DAPK1(h)): 0%

YARAAARQARAKALNRQLGVA (Mammal) [MMI-0200]
% activity (TLK2(h)): 129% | % activity (EGFR(L861Q)(h)): 74% | % activity (SRPK1(h)): 93% | % activity (WNK3(h)): 97% | % activity (DRAK1(h)): 34% | % activity (cSRC(h)): 32% | % activity (Arg(h)): 82% | % activity (PRK2(h)): 74%
